Reference: patent US10562936B2, “Ligands for integrin αvβ6, synthesis and uses thereof” (Technische Universitat Munchen, priority 2015, dated 2020)
Read-outs that look alike come from different tables or passages of the source. Square brackets hold non-standard residues; d marks the D form. Side chains are listed from the residue outwards. Abu = CC[C@H](N)C(=O)O; Cy5.5 = Cyanine-5.5; Ahx = NCCCCCC(=O)O; βAla = NCCC(=O)O

Key:
[1] = target: integrin α5β1 (soluble integrin) (UniProt P08648); experiment: solid-phase binding assay, internal standard; coated fibronectin, soluble α5β1
αvβ6 = αvβ6 (Homo sapiens, UniProt P06756+P18564); settings: from WO 01/05810; cited from earlier work
[2] = system: human oral squamous cell carcinoma (OSCC) cell line HN (high integrin αvβ6); experiment: Cell binding / fluorescence bioimaging of Cy5.5 conjugate on HN cells; assay type: cell-based
Source text: The human oral squamous cell carcinoma (OSCC) cell line HN were purchased from the German Collection of Microorganisms and Cell Cultures, Braunschweig, Germany (DSMZ no. ACC 417). HN cells derived from a cervical lymph node metastasis of a highly aggressive and invasive OSCC of the soft palate.^[9] As control cells, we used the human ovarian cancer cell line OVMZ6 with low integrin αvβ6 and high integrin αvβ3 expression.^[10] All cells were cultivated in Dulbecco's Modified Eagle's Medium (DMEM) (Sigma-Aldrich, St. Louis, Mo., USA), supplemented with 10% (v/v) fetal calf serum (FCS) (Gibco, LifeTechnologies™, Carlsbad, Calif., USA).
HN and OVMZ6 cells were cultivated for 24 h on fibronectin-coated microchamber slides at a density of 25×10^3/well, thereafter fixed in 2% (w/v) PFA for 15 min at r.t. and washed in PBS. The Cy5.5-conjugated compound 18-Cy5.5, dissolved in PBS, 5% (v/v) dimethyl sulfoxide (DMSO), was applied at a final concentration of […] for 1 h at r.t., followed by 3 washes in PBS. […] As control peptide served the non-binding cycl(R^betaADfK) labelled via lysine side-chain NH2 group with Cy5.5 fluorescent dye. After the incubation period, cells were washed 6 times in PBS and slides mounted. Fluorescence signal intensity was detected by the microscope Zeiss LSM 700 (Zeiss) as described above.

[3] = target: T1, integrin αvβ6 (soluble integrin) (UniProt P06756 31-992; P18564 22-707); experiment: solid-phase binding assay, internal standard; coated LAP, soluble αvβ6
T1 construct: Only 'soluble integrins' is said

[4] = target: T2, integrin αvβ8 (soluble integrin) (UniProt P06756 31-992; P26012 43-684); experiment: solid-phase binding assay, internal standard; coated LAP, soluble αvβ8
T2 construct: Only 'soluble integrins' is said

[5] = target: T1, integrin αvβ6 (soluble integrin); experiment: solid-phase binding assay, competition; coated LAP, soluble αvβ6
[6] = target: T3, integrin αvβ3 (soluble integrin) (UniProt P06756 31-992; P05106 27-718); experiment: solid-phase binding assay, competition; coated vitronectin, soluble αvβ3
T3 construct: Only 'soluble integrins' is said

[7] = target: T3, integrin αvβ3 (soluble integrin); experiment: ratio of IC50s αvβ6:αvβ3, printed the other way round (6.1 for αvβ6 to 1 for αvβ3)
[8] = target: T2, integrin αvβ8 (soluble integrin); experiment: solid-phase binding assay, competition; coated LAP, soluble αvβ8
[9] = target: T4, integrin α5β1 (soluble integrin) (UniProt P08648 42-995; P05556 21-728); experiment: solid-phase binding assay, competition; coated fibronectin, soluble α5β1
T4 construct: Only 'soluble integrins' is said

[10] = target: T3, integrin αvβ3 (soluble integrin); experiment: solid-phase binding assay, competition; coated vitronectin, soluble αvβ3; remark: listed apart in the source

T4 sequence (P08648 42-995, chain 1 of 2): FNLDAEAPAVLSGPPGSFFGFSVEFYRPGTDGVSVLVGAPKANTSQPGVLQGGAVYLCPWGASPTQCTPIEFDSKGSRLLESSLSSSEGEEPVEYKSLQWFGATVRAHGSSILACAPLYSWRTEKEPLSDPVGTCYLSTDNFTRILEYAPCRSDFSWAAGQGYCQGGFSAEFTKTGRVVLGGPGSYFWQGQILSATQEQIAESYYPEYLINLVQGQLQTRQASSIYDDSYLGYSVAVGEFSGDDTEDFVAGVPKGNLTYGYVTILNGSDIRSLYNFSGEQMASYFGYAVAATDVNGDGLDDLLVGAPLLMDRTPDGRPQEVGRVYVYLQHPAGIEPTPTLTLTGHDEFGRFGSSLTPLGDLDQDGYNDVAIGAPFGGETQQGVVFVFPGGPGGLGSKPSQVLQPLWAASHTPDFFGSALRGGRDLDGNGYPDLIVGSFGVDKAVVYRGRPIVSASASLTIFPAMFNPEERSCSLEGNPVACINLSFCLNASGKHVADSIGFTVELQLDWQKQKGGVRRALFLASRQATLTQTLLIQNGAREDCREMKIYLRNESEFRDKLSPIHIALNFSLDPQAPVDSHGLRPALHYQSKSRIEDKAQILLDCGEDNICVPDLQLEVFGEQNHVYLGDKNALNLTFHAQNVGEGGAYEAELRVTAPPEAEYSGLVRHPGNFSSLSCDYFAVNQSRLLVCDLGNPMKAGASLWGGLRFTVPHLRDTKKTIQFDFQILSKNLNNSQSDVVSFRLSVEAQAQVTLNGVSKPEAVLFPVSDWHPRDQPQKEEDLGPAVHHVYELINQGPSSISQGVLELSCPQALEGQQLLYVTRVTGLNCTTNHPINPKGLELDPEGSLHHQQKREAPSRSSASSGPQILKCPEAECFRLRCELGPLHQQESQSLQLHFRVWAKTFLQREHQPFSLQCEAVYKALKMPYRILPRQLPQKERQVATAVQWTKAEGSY
T4 sequence (P05556 21-728, chain 2 of 2): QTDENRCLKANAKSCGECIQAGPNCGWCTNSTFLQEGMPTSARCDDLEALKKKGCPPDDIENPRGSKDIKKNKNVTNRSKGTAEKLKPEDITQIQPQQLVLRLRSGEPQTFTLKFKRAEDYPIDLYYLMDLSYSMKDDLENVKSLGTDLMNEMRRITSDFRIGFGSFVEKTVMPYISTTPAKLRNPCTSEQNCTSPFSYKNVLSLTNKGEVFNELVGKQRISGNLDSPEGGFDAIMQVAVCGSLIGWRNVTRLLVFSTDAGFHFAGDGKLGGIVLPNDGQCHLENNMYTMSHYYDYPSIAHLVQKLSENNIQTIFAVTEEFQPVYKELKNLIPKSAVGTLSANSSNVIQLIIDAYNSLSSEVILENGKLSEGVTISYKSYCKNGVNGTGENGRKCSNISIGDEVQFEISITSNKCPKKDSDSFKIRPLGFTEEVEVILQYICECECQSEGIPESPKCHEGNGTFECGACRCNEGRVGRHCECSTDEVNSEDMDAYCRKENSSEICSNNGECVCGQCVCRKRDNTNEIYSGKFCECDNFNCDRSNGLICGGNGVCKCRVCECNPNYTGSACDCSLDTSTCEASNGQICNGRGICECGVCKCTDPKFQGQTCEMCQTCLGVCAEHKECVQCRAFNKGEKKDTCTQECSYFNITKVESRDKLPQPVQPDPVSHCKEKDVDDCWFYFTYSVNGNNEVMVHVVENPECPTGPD
T3 sequence (P06756 31-992, chain 1 of 2): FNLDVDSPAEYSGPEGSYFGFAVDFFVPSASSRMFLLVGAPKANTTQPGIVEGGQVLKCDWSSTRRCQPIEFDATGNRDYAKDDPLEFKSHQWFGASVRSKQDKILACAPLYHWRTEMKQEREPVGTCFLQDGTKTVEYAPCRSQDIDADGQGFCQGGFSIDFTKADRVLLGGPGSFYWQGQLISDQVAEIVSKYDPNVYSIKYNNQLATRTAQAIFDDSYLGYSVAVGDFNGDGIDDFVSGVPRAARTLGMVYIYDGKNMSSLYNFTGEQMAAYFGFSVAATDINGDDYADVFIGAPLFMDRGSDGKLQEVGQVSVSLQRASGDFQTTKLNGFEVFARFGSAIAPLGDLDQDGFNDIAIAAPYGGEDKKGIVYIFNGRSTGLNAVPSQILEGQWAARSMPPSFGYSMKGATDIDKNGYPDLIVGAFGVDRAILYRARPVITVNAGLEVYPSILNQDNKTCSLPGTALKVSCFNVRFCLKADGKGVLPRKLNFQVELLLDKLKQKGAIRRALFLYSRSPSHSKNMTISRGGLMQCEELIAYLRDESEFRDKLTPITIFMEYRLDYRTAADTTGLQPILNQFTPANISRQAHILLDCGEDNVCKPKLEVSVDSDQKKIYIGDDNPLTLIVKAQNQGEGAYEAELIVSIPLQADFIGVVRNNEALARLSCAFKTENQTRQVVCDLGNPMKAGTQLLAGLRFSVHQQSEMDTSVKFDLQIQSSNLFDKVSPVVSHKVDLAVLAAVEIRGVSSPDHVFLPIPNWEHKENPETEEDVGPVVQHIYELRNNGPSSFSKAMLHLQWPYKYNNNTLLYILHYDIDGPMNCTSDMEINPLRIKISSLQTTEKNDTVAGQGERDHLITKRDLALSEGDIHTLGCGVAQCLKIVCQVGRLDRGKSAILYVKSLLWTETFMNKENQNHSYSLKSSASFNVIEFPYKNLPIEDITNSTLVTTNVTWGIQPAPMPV
T3 sequence (P05106 27-718, chain 2 of 2): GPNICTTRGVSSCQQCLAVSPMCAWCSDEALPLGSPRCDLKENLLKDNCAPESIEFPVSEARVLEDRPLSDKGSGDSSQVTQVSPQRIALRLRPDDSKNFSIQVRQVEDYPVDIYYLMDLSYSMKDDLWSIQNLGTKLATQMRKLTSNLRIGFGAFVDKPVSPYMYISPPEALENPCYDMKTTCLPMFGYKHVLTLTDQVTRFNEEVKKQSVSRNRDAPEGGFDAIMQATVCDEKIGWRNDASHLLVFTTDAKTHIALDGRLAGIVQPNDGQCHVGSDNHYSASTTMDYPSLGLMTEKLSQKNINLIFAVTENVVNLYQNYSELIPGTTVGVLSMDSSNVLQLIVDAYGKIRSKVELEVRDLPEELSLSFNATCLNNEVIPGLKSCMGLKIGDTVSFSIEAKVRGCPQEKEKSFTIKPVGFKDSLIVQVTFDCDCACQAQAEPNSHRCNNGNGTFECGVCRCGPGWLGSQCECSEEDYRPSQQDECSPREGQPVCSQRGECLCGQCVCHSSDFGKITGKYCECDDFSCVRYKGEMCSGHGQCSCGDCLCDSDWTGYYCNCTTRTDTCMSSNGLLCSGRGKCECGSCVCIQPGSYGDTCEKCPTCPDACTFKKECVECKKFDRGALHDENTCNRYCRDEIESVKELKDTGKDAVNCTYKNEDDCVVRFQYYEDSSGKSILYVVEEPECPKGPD
T2 sequence (P06756 31-992, chain 1 of 2): as the sequence (P06756 31-992, chain 1 of 2) above
T2 sequence (P26012 43-684, chain 2 of 2): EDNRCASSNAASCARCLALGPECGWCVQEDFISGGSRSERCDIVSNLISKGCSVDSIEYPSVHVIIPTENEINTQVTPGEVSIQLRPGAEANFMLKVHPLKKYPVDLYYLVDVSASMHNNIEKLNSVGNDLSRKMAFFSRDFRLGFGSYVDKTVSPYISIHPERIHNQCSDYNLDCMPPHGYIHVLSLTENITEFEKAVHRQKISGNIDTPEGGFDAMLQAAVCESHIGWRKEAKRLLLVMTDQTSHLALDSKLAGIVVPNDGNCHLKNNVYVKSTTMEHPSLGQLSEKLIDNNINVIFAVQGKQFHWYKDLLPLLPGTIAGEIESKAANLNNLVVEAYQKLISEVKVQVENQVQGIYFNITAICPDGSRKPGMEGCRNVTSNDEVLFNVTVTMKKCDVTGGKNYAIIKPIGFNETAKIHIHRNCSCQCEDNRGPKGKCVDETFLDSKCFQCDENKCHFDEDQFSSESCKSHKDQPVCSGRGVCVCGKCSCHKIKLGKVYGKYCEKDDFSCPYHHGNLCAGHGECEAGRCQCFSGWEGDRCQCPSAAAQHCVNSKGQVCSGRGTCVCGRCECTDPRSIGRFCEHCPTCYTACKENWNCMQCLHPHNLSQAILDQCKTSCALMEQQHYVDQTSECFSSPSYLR
T1 sequence (P06756 31-992, chain 1 of 2): as the sequence (P06756 31-992, chain 1 of 2) above
T1 sequence (P18564 22-707, chain 2 of 2): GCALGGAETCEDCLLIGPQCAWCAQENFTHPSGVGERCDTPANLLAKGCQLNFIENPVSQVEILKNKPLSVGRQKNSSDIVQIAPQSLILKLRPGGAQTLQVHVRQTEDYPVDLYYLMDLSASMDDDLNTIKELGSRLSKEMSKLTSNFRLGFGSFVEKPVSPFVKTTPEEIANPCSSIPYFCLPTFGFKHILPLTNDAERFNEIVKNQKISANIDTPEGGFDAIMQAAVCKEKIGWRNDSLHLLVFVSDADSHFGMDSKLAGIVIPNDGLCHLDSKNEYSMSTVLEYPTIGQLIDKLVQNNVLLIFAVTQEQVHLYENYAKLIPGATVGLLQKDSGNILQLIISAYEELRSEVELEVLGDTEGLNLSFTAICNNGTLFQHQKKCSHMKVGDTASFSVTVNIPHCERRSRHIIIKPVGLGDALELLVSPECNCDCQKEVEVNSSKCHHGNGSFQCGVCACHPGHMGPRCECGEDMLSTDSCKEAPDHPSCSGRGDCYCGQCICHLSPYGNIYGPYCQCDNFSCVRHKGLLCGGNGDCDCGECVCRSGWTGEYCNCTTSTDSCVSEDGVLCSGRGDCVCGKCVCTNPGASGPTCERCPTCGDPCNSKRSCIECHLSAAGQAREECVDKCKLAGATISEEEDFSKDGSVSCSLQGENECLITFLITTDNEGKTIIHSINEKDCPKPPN
Chain of integrin α5β1 (soluble integrin) (UniProt P08648) (P08648 42-995, chain 1 of 2): as the sequence (P08648 42-995, chain 1 of 2) above
Chain of integrin α5β1 (soluble integrin) (UniProt P08648) (P05556 21-728, chain 2 of 2, further chain): as the sequence (P05556 21-728, chain 2 of 2) above

Molecule | IC50 [6] [nM] | IC50 [8] [nM] | IC50 [9] [nM] | IC50 [10] [nM] | other results
Cilengitide, c(-RGDf(NMe)V-) (peptide) |  |  |  |  | IC50 [1]: 1 to 8 nM
cyclo(RTDLdALR-Abu-Abu) (cyclo(RTDL[dD]ALR[Abu][Abu]); SMILES CC[C@@H]1NC(=O)[C@H](CCCNC(=N)N)NC(=O)[C@H](CC(C)C)NC(=O)[C@H](C)NC(=O)[C@@H](CC(=O)O)NC(=O)[C@H](CC(C)C)NC(=O)[C@H](CC(=O)O)NC(=O)[C@H]([C@@H](C)O)NC(=O)[C@H](CCCNC(=N)N)NC(=O)[C@H](CC)NC1=O) |  |  |  |  | IC50 (αvβ6): ~1 nM
cycl(R^betaADfK)-ahx-Cy5.5 (cyclo(R[βAla]D[dF]K([Ahx-Cy5.5]))) [reference compound] |  |  |  |  | fluorescence signal intensity on cells ([2]; fixed HN cells, conjugate 10 M, 1 h at r.t.): did not result in fluorescence signal intensity
CC(C)C[C@@H]1NC(=O)[C@H](CC(=O)O)NC(=O)CNC(=O)[C@H](CCCNC(=N)N)NC(=O)[C@H](Cc2ccccc2)NC(=O)[C@H](CCCCN)N(C)C(=O)[C@H]2CCCN2C(=O)[C@H](Cc2ccccc2)NC(=O)[C@H](C)NC1=O [Compound 18, F R G D L A F p (NMe)K] |  |  |  |  | binding competition: fluorescence signal intensity of 18-Cy5.5 after pre-incubation ([2]; 10-fold molar excess of unlabeled analogue for 1 h at r.t. prior to 18-Cy5.5): strong reduction in fluorescence signal intensity
RTDLDSLRT (also called control peptide (plasma stability)) [linear peptide RTDLDSLRT] |  |  |  |  | IC50 [3]: 6 to 33 nM; IC50 [4]: 8 to 100 nM
cyclo(ARGDLDL[dP]P) (SMILES CC(C)C[C@@H]1NC(=O)[C@H](CC(=O)O)NC(=O)CNC(=O)[C@H](CCCNC(=N)N)NC(=O)[C@H](C)NC(=O)[C@@H]2CCCN2C(=O)[C@H]2CCCN2C(=O)[C@H](CC(C)C)NC(=O)[C@H](CC(=O)O)NC1=O, Comparative compound (*)) [Compound 8, cyclic peptide A R G D L D L p P] | 2.4 |  |  |  | IC50 [5]: 14.7 nM; Ratio [7]: 6.1
cyclo(ARGDLAF[dP]P) (SMILES CC(C)C[C@@H]1NC(=O)[C@H](CC(=O)O)NC(=O)CNC(=O)[C@H](CCCNC(=N)N)NC(=O)[C@H](C)NC(=O)[C@@H]2CCCN2C(=O)[C@H]2CCCN2C(=O)[C@H](Cc2ccccc2)NC(=O)[C@H](C)NC1=O, also called Cpd; 10) [Compound 10, cyclic peptide A R G D L A F p P] | 104 | 10.4 | 38.4 | 104 | 
cyclo(ARGDLAK[dP]P) (SMILES CC(C)C[C@@H]1NC(=O)[C@H](CC(=O)O)NC(=O)CNC(=O)[C@H](CCCNC(=N)N)NC(=O)[C@H](C)NC(=O)[C@@H]2CCCN2C(=O)[C@H]2CCCN2C(=O)[C@H](CCCCN)NC(=O)[C@H](C)NC1=O, also called Cpd; 11) [Compound 11, cyclic peptide A R G D L A K p P] | 302 | 49.3 | 831 | 302 | 
cyclo(ARGDLAAL[dP]P) (Comparative compound (*); also called Cpd) [Compound 1, cyclic peptide A R G D L A A L p P] | 76.7 | 115 | 454 | 76.7 | 
